From FireProtDB (doi:10.1016/0022-2836(92)90387-y) come the findings set out here.

The conditions of this series: Bacillus amyloliquefaciens; pH 6.3; 25 °C; Urea; Fluorescence; MES 50 mM; reversible: yes; whole UniProt chain shown.

B1: Ribonuclease wild type, P00648 (protein)
chain: MMKMEGIALKKRLSWISVCLLVLVSAAGMLFSTAAKTETSSHKAHTEAQVINTFDGVADYLQTYHKLPDNYITKSEAQALGWVASKGNLADVAPGKSIGGDIFSNREGKLPGKSGRTWREADINYTSGFRNSDRILYSSDWLIYKTTDHYQTFTKIR
Take B1: the unfolding free energy stood at 8.83 kcal/mol.
